We go through 14 molecules from patent publication US20220073935A1.

In this experiment the target is E2F1-SB, DP1 (E2F1 fragment with C-terminal Small BiT, co-expressed with Dp-1) (human) (UniProt Q01094). In words: NanoBiT split-luciferase complementation, cells stably expressing E2F1-SB and Dp-1; relative to WT LB-Rb.

Changes are numbered by the printed parent chain. Names and notes keep the numbering of the source.

E2F1-SB, DP1 (E2F1 fragment with C-terminal Small BiT, co-expressed with Dp-1) (human), sequence (Q01094 whole entry, chain 1 of 2, the tested form may be a part): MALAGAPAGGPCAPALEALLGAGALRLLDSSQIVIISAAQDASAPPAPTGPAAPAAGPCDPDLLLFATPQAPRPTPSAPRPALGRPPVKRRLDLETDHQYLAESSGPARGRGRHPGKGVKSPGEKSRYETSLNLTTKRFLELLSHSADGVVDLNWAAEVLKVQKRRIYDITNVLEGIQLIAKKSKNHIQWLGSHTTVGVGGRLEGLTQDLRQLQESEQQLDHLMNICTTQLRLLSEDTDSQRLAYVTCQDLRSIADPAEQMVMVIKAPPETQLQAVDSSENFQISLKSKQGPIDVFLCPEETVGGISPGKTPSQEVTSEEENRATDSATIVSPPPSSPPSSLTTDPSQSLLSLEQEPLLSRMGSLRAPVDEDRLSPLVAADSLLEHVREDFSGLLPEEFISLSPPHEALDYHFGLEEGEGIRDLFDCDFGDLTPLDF
E2F1-SB, DP1 (E2F1 fragment with C-terminal Small BiT, co-expressed with Dp-1) (human), sequence (Q14186 whole entry, chain 2 of 2, further chain, the tested form may be a part): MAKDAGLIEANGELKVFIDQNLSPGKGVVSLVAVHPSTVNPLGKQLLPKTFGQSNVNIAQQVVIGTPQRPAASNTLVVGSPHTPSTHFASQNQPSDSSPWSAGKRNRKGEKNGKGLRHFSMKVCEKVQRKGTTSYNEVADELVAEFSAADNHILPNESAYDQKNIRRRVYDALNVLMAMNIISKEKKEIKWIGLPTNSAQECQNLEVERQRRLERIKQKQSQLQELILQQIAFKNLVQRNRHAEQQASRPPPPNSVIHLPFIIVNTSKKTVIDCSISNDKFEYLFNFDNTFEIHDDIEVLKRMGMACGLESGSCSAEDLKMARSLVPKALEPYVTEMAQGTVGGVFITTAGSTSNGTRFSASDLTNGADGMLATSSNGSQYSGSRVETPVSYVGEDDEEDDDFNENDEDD

As for “LB-Rb (379-928) R661del1, out-of-frame deletion mutant (from UniProt P06400 379-660)”, the % (/wt) luciferase activity is 0.8 % (/wt).

Turning to “LB-Rb (379-928) I703del35, in-frame deletion mutant (from UniProt P06400 379-702; P06400 738-928)”, the % (/wt) luciferase activity is 8.6 % (/wt).

Regarding “LB-Rb (379-928) R798W (from UniProt P06400 379-928)”, the % (/wt) luciferase activity is 120 % (/wt).

B1: LB-Rb (379-928) A488V (protein, part only; not given: Large BiT luciferase tag, human, UniProt P06400 379-928, looked up, part only)
chain, part: MNTIQQLMMILNSASDQPSENLISYFNNCTVNPKESILKRVKDIGYIFKEKFAKAVGQGCVEIGSQRYKLGVRLYYRVMESMLKSEEERLSIQNFSKLLNDNIFHMSLLVCALEVVMATYSRSTSQNLDSGTDLSFPWILNVLNLKAFDFYKVIESFIKAEGNLTREMIKHLERCEHRIMESLAWLSDSPLFDLIKQSKDREGPTDHLESACPLNLPLQNNHTAADMYLSPVRSPKKKGSTTRVNSTANAETQATSAFQTQKPLKSTSLSLFYKKVYRLAYLRLNTLCERLLSEHPELEHIIWTLFQHTLQNEYELMRDRHLDQIMMCSMYGICKVKNIDLKFKIIVTAYKDLPHAVQETFKRVLIKEEEYDSIIVFYNSVFMQRLKTNILQYASTRPPTLSPIPHIPRSPYKFPSSPLRIPGGNIYISPLKSPYKISEGLPTPTKMTPRSRILVSIGESFGTSEKFQKINQMVCNSDRVLKRSAEGSNPPKPLKKLRFDIEGSDEADGSKHLPGESKFQQKLAEMTSTRTRMQKQKMNDSMDTSNKEEK
For B1, the % (/wt) luciferase activity was 51 % (/wt).

B2: LB-Rb (379-928) C706F (protein, part only; not given: Large BiT luciferase tag, human, UniProt P06400 379-928, looked up, part only)
chain, part: B1 chain, part with V110A, C328F
As to B2, the % (/wt) luciferase activity is 5.5 % (/wt).

B3: LB-Rb (379-928) E440K (protein, part only; not given: Large BiT luciferase tag, human, UniProt P06400 379-928, looked up, part only)
chain, part: B1 chain, part with E62K, V110A
For the molecule B3, the % (/wt) luciferase activity was 47 % (/wt).

B4: LB-Rb (379-928) R798Q (protein, part only; not given: Large BiT luciferase tag, human, UniProt P06400 379-928, looked up, part only)
chain, part: B1 chain, part with V110A, R420Q
In the case of B4, the % (/wt) luciferase activity is 92 % (/wt).

B5: LB-Rb (379-928) L665R (protein, part only; not given: Large BiT luciferase tag, human, UniProt P06400 379-928, looked up, part only)
chain, part: B1 chain, part with V110A, L287R
Take B5: the % (/wt) luciferase activity was 5 % (/wt).

B6: LB-Rb (379-928) I724N (protein, part only; not given: Large BiT luciferase tag, human, UniProt P06400 379-928, looked up, part only)
chain, part: B1 chain, part with V110A, I346N
In the case of B6, the % (/wt) luciferase activity is 7.4 % (/wt).

B7: LB-Rb (379-928) R621S (protein, part only; not given: Large BiT luciferase tag, human, UniProt P06400 379-928, looked up, part only)
chain, part: B1 chain, part with V110A, R243S
For B7, the % (/wt) luciferase activity was 124 % (/wt).

B8: LB-Rb (379-928) R698W (protein, part only; not given: Large BiT luciferase tag, human, UniProt P06400 379-928, looked up, part only)
chain, part: B1 chain, part with V110A, R320W
Consider B8, for which the % (/wt) luciferase activity was 6.4 % (/wt).

B9: LB-Rb (379-928) R656W (protein, part only; not given: Large BiT luciferase tag, human, UniProt P06400 379-928, looked up, part only)
chain, part: B1 chain, part with V110A, R278W
For B9, the % (/wt) luciferase activity is 79 % (/wt).

B10: LB-Rb (379-928) R661W (protein, part only; not given: Large BiT luciferase tag, human, UniProt P06400 379-928, looked up, part only)
chain, part: B1 chain, part with V110A, R283W
Take B10: the % (/wt) luciferase activity was 5.2 % (/wt).

B11: LB-Rb (379-928) V654M (protein, part only; not given: Large BiT luciferase tag, human, UniProt P06400 379-928, looked up, part only)
chain, part: B1 chain, part with V110A, V276M
With B11, the % (/wt) luciferase activity was 132 % (/wt).
